From patent US20220112249A1 (published 2022)

Target: V1.1
Assay: SPR

B1: CFH (fH67) (other)
chain: TLKPCDYPDIKHGGLYHENMRRPYFPVAVGKYYSYYCDEHFETPSGSYWDHIHCTQDGWSPAVPCLRKCYFPYLENGYNQNYGRKFVQGKSIDVACHPGYALPKAQTTVTCMENGWSPTPRCI
Kd: 3.6 nM
